Measurements reported in the supplement of paper PMC12764529.
± gives the half width of the 95% confidence interval.

Assay: folding stability dG unfold (combined trypsin and chymotrypsin); higher = more stable
Protocol: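 Folding stability of de novo designed mini-proteins (<80 aa, no Cys; designed by TrROS, TrMRF, ProteinMPNN and the joint model) was measured by cDNA display proteolysis with trypsin and chymotrypsin. Each protease was used at 11 concentrations in a threefold dilution series plus a no-protease condition. K50 was inferred by Bayesian fitting of sequencing counts, and dG unfold was derived against a sequence-predicted unfolded-state K50 (Tsuboyama et al. method). Sequences shown include variable-length N-terminal GS-type padding (SAGGSAGG...) inside a display construct carrying a PA tag. Rows were kept only if the AF2 dimer inter-PAE was >15, to exclude likely homo-oligomers.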

Sequence	folding stability dG unfold [kcal/mol]
GEVLVAKIELKVKKKLPEKPEEVEEKLELEFVAPIDNPEALEKAEEIAKKLAEEIGATEVKIKVEPYILPES [r1_346_TrMRF]	< -1
GMILFKVKLTDPKGKKEIAEVDIPIPVPEEVLPAMPEELKEKLREEAEKAAEEIREKLGNVLVEPEFTLLES [r1_115_JUSTAS]	< -1
MKVLKTETKPIPGSGKIEVRVEYEVDGFFDPATGKPYSPDYLVTEKKTITVPPDSDDEIVTSSITFHPNLKS [r1_147_JUSTAS]	< -1
PEPGAVETRETDYIDPNNNNKYKATITTTRDPNSDLATVNTTIKLPNGETLNYSATINPNPGTVTSTTSISS [r1_144_JUSTAS]	-0.628 ± 0.48
SAALGPEKAEELAEALARELAEKAGVEKVEAKVEPLPDERWVAEIYFPPVGKKARVVFEKDKPRLVEVGSAG [r14_925_TrMRF]	< -1
SAGDALKEAAKNGKPAELPIRFHFYQIKEPERDKDGGPRYKMKPIHTVEFPIRVDKVDPGNGDIKIDMPSAG [r5_5_TrROS]	< -1
SAGDRKVIHINGFEPEQFRKIIREAKDKGPPGDRIWIPSPEYVDELKELDPNLPVEVHNMDNGEWQEIESAG [r5_391_TrROS]	< -1
SAGFDFPEDFTPIARDGVNSLWQGDGPVLLALRGPEGGSAVLPFKPGNPEEIFPLIEALAAGGVVDPSFSAG [r14_12_TrMRF]	< -1
SAGGAMTPDGTSVTIPYEAKTPTGEASEEEARERIEEELAARPDVALTRVEFEREGDRIKATVYTRVPRSAG [r5_688_JUSTAS]	< -1
SAGGDIEVEPTDNMPQVEIRDPEGKERKIVMPPNPNGQYNIQVHNPDDGKKKTFPVRSVDDALEWLKSAGGS [r8_230_TrROS]	< -1
SAGGDKIQEKLQKEGGFRPTNTEVNGGKPKIHIHWPNPERRKKLKEKLKKDPGIEEVQIQPMDPEDMSAGGS [r16_671_TrROS]	< -1
SAGGDNRQEREFHIPDPDGEDINITMEYNPSNGRTRVKVQPPEDGKPIKEIPADEMPPEAQDILKKISAGGS [r8_32_TrROS]	< -1
SAGGDWLDNFPPGWKIKLERPNGKPKTYTIPPNSSPDDLKKLKLPNGYKLKIDEVTPNGQMTFRLPPSAGGS [r16_103_TrROS]	< -1
SAGGDYVSITIDDPNPGMPPEELAQEIIRELNPDGFPIKPKKIEPERHDGRPKVTITFRVDDPEAIKKSAGG [r13_979_TrROS]	< -1
SAGGEDIIKELLDQLPPGDKNAVLEFDPPDGKLEPKEPSPGGYMFEPKNPENGEKWTFVIRDDKIEPVSAGG [r13_803_TrROS]	< -1
SAGGEISIMFKSPEGVKEIAEELEENGLEVDVSPVPGYWMVRIQPKPKPPPTPEAAEKAQRDPDQANKSAGG [r13_8_TrROS]	< -1
SAGGFNLKIMPMRMPRRKYDPEDGEPKKPEPVKMWMIQVEAKPGQTVSEIADELQKEFPGDNIMVMPSAGGS [r8_30_TrROS]	< -1
SAGGFPISIERWDPDGKKRRREIPMDDPDEIKEFLDDLPPDRPVRIHMPNPQHFNALKNAGFDEVEMMSAGG [r13_476_TrROS]	< -1
SAGGFYRLKIYNPDNGQPIEFPINWDEVEEAIKNGDLDELAEHYPGAPIDKIEVEPVKPVPPVPPDEKSAGG [r13_629_TrROS]	< -1
SAGGGMEIVTTKESTLPEDVKVKESTTTFPDGTSIKTVTLTSPKPGDTKTITIPVKPGGPGLSTTVTESAGG [r13_323_JUSTAS]	< -1

Sequence	folding stability dG unfold [kcal/mol]
SAGGGMRPVPVSEIIAKLKEEGYTVSKVSVYRPGSGEKLGTYDPNTPVVIPADEPDAVIEPVVEPKGSAGGS [r8_243_JUSTAS]	< -1
SAGGGPPLRVSTESEVYEDPETGVTYVRRRIHVEGGLVVEEELKETVNPEDPGAEVTLVSRRESPALSAGGS [r8_241_JUSTAS]	< -1
SAGGIKELADEGAEIKDVTWPVRFPDGNPMRITEIKPTDGGLDIRFEPPNDGREQEHPIPPDNIEPLPSAGG [r13_340_TrROS]	< -1
SAGGIKPGQQWRIRSPNGPIPIRVRGGQIKIRNNDNGKKRTYPVPGDTIEEIVDDLRDHPGMEIEPLSAGGS [r16_583_TrROS]	< -1
SAGGIRIRPGQKIEDIEFEVEKNPDGEPPIKVKIRWPDKGKPHTYTMTPGQDVGNFADKNGWPIEVVSAGGS [r16_676_TrROS]	< -1
SAGGITLKEIREALKKGHMMRIEGPDGGKRRIPIDDLKDMPGIKPGMPLEDLKVRKIEWVPPDDGQPMSAGG [r13_587_TrROS]	< -1
SAGGIWIDNPDQILDQIKENPNQPRTIQVPMDPDNGQIPPDIKKALKEPGMPVQHDPNGYMTFKIPPSAGGS [r16_335_TrROS]	< -1
SAGGKELVEKLLAEGGVKPVKIETKEGKPKIEVLAPKPELGKKLVEKLKKDPRIEEVNIKPYKPEELSAGGS [r16_671_TrMRF]	< -1
SAGGKITIEMPEDGMYRITIRNPNKGEPVSEIPIPANQIQELAKENGEPMPIEDIVRKLGYPIEIERYSAGG [r13_836_TrROS]	< -1
SAGGMEEKVINIPLSNGEEATITITIENEPGKNKAIVPINSKSVPAEELAKKLKKELPESITDLTVVKSAGG [r13_404_JUSTAS]	< -1
SAGGMIIDDPDALLDAIKENPNTPLVFLVPTDPATGTVDPAVIDAVVEPGFPVERDPDGYVRFIFPKSAGGS [r16_335_TrMRF]	< -1
SAGGMKAKIIPFTVAGGAYEPETGELKKPVPVKVTLIEVEPEPDVKVEEIAEEFEKAFPGKGVIVAPSAGGS [r8_30_TrMRF]	< -1
SAGGMPLEKIKEIKLVKEKEDGEKEILIVVEDPELVKEGNVEEVKKLAEALAEELKKKGIKVKIEVKPSAGG [r13_243_TrROS_Hall]	< -1
SAGGMPPGQKKTITLEMNEPGYFRIHNPNGGQEREFPINPDQSPSEFLDWAEDFAEDYGYPVEIEWHSAGGS [r16_446_TrROS]	< -1
SAGGMSPNQKVTIEIDNWHPGPGGNYFNVRIRNPGNGKPREINGPGDNPEDMKKEIEELVKAGPIEIYSAGG [r13_286_TrROS]	< -1
SAGGMTKTYDPNGRTITELPDGTVVETTVDPSKPLTKVTTTTVEGDNVVSSTEILQEVSLPETSPYLSAGGS [r8_142_JUSTAS]	< -1
SAGGMTLESEVTTLPDGTVVTKTTTVYPDGTVTTKTTTTSVPAGPPTVVRTLPDGSRVRDPTGEWTALSAGG [r13_151_JUSTAS]	< -1
SAGGMVVITTDDPDDLERLAEAVEELKRALAEAGATEPGVKVDVVIEKRPTPDGTLRYVAPVFVGLPSAGGS [r16_591_TrMRF]	< -1
SAGGNLKIEMGDNPHEIPVDPNQVDTPEEAIEEVADQIRNRFPQFGPFRVRVETEGGKEIAMINIKPKSAGG [r13_257_TrROS]	< -1
SAGGPGPPPLEPVVVPVDDGVAVFTRSPDGSLHVEIGPRSGPVVASATAPLPEDSELTVDAVVLPEELSAGG [r13_584_TrMRF]	< -1

Sequence	folding stability dG unfold [kcal/mol]
SAGGPKIDVEKEKSPERGRRKIEIRWPGSGQEMDIFLPDDDPDKIAKALQNAPFGSFHEAIREALRDSAGGS [r8_484_TrROS]	< -1
SAGGPMREYTIKLPGKKITINEMPNPNGNEMTQVSVRDGGEPKRPVNMPNDNADEFAKKPGIKPDDIVSAGG [r13_108_TrROS]	< -1
SAGGPVSEEIVTEKKTLEEDPKNGNTYSEIIMKTPNETIKVKGVKHPSGSTTYTVYTPNSKIATVNVSSAGG [r13_146_JUSTAS]	< -1
SAGGSAEPKPGVKAILFNENGEPIKEVSENEEILLPNGTPTKVYRLPDNSSIATHPDGYVALFVEGSAGGSA [r15_845_TrMRF]	< -1
SAGGSAGEKTLKIVIEGKDKEKVVKEAKPLLEKLFGAKEIKVKVEPLPDGGYKVPIEITVPPGAAKSAGGSA [r15_173_TrMRF]	< -1
SAGGSAGGAVRVDDSEIGPDRAAPLPGNRSLEVRPDSVTVTTTDPSTNTPTTTTLPYSEVERLLSAGGSAGG [r6_942_JUSTAS]	< -1
SAGGSAGGDYKLEPDDIEPMPDGWYQVEIEIEQRDPDGEPETRDIPVWMPPGQTAKDMAKWLIKSAGGSAGG [r6_329_TrROS]	< -1
SAGGSAGGGMMKTITITESVVLEVRPVTSENGRVYPEVLSEVLKTTTVPFPPGNEEEIEKAIKESAGGSAGG [r6_738_JUSTAS]	< -1
SAGGSAGGGNTPRPRPRSVVTKLNVSPDTVPPEELKAKHPDIEVSYSPNSLTARVPVNGELVESSAGGSAGG [r6_739_JUSTAS]	< -1
SAGGSAGGIKIDPNIKEITWHQNPNGMFYHTIKVDEGKKVAPVRFPPDQPPEQMWDNAKEALKESAGGSAGG [r6_436_TrROS]	< -1
SAGGSAGGITVTIDMNEGYYRIKVEYPGNGKKREIPISGPPDDLASELEDEFGYPVKDVEIEKWSAGGSAGG [r6_763_TrROS]	< -1
SAGGSAGGKPIVFKGKHDGKEMIFPIELNPENGQIKITPMNGKELRIPPNKPPKIVEVDPNDFESAGGSAGG [r6_174_TrROS]	< -1
SAGGSAGGMDEKLYITTAEVTVKEDGAPVPSTMTFKSKEEIEKYVKETFPPENVELKITTYPELSAGGSAGG [r6_114_JUSTAS]	< -1
SAGGSAGGMEAVLEALKELPPDEEKVITVPHPDDPRYVVRFTLRRKGDEIEIPVEKKPIPPGLASAGGSAGG [r6_392_TrMRF]	< -1
SAGGSAGGMEKADKLAAALVEKGIPFHVKKVEVFEVRIPPADKELGEVVLPAVKIGLDDKVLLASAGGSAGG [r6_686_TrMRF]	< -1
SAGGSAGGMKTEVVEETVPLRNEDGKLLPSDALLETELPDKKVLTLVERDPNSDTVKTTRVILESAGGSAGG [r6_659_JUSTAS]	< -1
SAGGSAGGMSLIVKSEEEAREILKKLGWKVKKLNITKLKDESGTVKIPVEIEPVPKGKLSEELISAGGSAGG [r6_981_JUSTAS]	< -1
SAGGSAGGNWETIPIKGDPKQMVDEAREENPRNVRIYNPNNGKKHEFPPGLPLDDFPGMYVQRRSAGGSAGG [r6_858_TrROS]	< -1
